The Kd is a measure of binding affinity in units of concentration.

One series deals with T1, RsAgo WT (Rhodobacter sphaeroides (ATCC 17025D-5), UniProt A4WYU7 1-777).
T1 sequence: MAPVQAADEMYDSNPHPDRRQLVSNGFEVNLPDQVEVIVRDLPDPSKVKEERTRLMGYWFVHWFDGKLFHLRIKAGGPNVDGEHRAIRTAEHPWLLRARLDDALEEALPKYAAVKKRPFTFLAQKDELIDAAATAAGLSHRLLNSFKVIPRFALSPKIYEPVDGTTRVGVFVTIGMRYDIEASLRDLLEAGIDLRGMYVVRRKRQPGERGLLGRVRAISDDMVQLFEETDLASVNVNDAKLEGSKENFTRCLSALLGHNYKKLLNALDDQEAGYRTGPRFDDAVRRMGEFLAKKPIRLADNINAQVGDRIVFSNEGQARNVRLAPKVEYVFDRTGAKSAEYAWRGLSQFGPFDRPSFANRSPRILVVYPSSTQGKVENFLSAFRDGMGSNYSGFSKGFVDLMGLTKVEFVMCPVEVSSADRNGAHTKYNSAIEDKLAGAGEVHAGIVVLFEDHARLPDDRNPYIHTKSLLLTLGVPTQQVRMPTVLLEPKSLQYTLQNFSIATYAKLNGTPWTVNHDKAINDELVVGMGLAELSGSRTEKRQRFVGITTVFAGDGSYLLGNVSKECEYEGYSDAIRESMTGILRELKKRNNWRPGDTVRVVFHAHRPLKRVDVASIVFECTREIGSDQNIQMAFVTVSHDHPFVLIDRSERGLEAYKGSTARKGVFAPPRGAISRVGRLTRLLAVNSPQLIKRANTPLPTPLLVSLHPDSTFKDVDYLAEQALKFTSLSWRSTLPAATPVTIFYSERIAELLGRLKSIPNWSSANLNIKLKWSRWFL
As to the kind of experiment: fluorescence polarization; 5 mM Mg2+; FP: 20 mM HEPES-KOH pH 7.5, 200 mM NaCl, 5 mM MgCl2, 0.01 mg/ml E. coli total tRNA, 0.01% NP-40, 10 pM probe, 25 C; EMSA: 20 mM HEPES-KOH pH 7.5, 200 mM NaCl, 5.

A further series has as its target T2, RsAgo delL777 (Rhodobacter sphaeroides (ATCC 17025D-5), UniProt A4WYU7 1-776, del777-777).
T2 sequence: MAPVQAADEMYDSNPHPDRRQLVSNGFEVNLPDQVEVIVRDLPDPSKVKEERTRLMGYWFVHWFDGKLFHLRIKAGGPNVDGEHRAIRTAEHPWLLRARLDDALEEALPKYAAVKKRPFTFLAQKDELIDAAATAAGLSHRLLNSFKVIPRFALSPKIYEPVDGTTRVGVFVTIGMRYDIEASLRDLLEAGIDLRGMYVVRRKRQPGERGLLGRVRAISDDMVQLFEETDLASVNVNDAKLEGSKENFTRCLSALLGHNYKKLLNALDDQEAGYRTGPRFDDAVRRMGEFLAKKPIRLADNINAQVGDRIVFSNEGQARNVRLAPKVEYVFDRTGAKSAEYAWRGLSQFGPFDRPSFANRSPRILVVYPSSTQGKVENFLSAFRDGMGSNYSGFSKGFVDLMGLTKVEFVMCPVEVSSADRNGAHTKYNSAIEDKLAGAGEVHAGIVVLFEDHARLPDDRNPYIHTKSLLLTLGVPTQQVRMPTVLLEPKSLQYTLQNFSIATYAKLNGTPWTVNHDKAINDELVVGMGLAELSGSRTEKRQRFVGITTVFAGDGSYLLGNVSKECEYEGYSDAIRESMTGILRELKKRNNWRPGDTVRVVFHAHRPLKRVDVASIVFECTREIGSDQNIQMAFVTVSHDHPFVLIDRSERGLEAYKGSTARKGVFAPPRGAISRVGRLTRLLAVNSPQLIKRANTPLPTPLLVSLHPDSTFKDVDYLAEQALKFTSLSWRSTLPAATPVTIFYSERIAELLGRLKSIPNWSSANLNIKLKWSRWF
The description is as above.

The next series has as its target T3, RsAgo delP45-W63 (Rhodobacter sphaeroides (ATCC 17025D-5), UniProt A4WYU7 1-777, del45-63).
T3 sequence: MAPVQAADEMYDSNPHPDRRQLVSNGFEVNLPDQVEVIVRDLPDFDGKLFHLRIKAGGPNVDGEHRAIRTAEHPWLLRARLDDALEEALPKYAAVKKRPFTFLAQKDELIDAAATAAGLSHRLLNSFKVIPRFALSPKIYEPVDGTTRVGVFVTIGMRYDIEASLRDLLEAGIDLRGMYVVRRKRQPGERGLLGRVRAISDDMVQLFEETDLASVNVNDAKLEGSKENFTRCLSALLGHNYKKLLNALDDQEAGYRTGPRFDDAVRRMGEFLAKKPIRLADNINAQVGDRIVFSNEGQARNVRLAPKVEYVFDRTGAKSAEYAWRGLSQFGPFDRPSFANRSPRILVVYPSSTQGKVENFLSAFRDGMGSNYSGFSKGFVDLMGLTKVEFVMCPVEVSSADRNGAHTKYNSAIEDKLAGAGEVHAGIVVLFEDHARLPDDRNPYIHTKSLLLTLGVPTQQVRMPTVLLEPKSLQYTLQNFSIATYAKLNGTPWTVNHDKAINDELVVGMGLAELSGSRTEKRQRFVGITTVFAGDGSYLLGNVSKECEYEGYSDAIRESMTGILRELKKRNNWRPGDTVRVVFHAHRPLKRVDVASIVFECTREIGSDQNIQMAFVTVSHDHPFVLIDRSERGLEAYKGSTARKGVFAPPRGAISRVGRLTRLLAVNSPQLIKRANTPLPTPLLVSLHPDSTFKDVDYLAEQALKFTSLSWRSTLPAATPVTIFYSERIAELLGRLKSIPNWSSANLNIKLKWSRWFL
As to the kind of experiment: fluorescence polarization; 5 mM Mg2+; same binding capacity as WT; FP: 20 mM HEPES-KOH pH 7.5, 200 mM NaCl, 5 mM MgCl2, 0.01 mg/ml E. coli total tRNA, 0.01% NP-40, 10 pM probe, 25 C; EMSA: 20 mM HEPES-KOH pH 7.5, 200 mM NaCl, 5. (In general: Polarisation of emitted light reports the rotation of a fluorescent probe.)

B1: 5'P-RNA (5'U-RNA), FAM (ssRNA)
RNA: UUACAACCUACUACCUCG
modifications: 5'-phosphate
B1: the Kd amounted to 0.91 ± 0.06 nM with RsAgo WT and 38.7 ± 2.1 nM with RsAgo delL777. For the same molecule, the binding result in the series with RsAgo delP45-W63 is “binds”.
